This is an account of results in PMC7854685, “Histone Parylation factor 1 contributes to the inhibition of PARP1 by cancer drugs” (Nature Communications, 2021).

Data set [1] concerns the target PARP1 - Nuc165 / PARP1 - p18mer complex (Homo sapiens, UniProt P09874). Nature of the data set: FRET assay of Alexa647-HPF1 binding to Alexa488-PARP1 with p18mer DNA or Nuc165, with or without olaparib. The settings on record: for Kd: read-out: KD of HPF1.
Method: Excess unincorporated dye from PARP1 was removed by gel filtration chromatography (S-200). The extent of labeling, defined as the ratio of the molar concentration of dye vs. protein, was determined by UV-Vis spectroscopy and was typically 50–100%. […] All concentrations reflect final concentrations in the plate and all samples were diluted in binding buffer. […] Raw fluorescence intensity values were used to correct the FRET signal for the donor bleed-through and for the acceptor direct excitation, as previously described[43].
Data set [2] deals with T1, PARP2 (Homo sapiens, UniProt Q9UGN5).
T1 construct: Wild-type PARP1 and PARP2 were expressed and purified as previously described; made in house
Nature of the data set: Rate of autoPARylation k2[NAD+] (DNA release without PARPi) in presence or absence of HPF1. In kind it is biochemical.
Method: (§1) Next, 10 µL of PARP1 or PARP2 (10 nM) premixed with fluorescein labeled p18mer DNA (5 nM), was added to the various dilutions of PARPi and then incubated for 30 min to ensure complete association. Dissociation of labeled DNA was initiated by addition of 10 µL of NAD^+ (2 mM). All concentrations cited are final concentrations in a volume of 30 µL. […] Kinetic data for a range of different PARPi (20–500 nM) were exported to Prism (GraphPad) and were globally fitted to individual exponentials1 y=y0−y∞*e^−kobsx+y0 with the constraints that y0 (the value of the FP signal at t = 0) and y∞ (the value of the FP signal at t = ∞) are shared for all concentrations of PARPi. […] We emphasize that the same correction is applied to the data for all PARPi.

The target in data set [3] is T2, PARP1 (Homo sapiens, UniProt P09874).
T2 construct: Wild-type PARP1 and PARP2 were expressed and purified as previously described; made in house
The data set is described as above. In kind it is biochemical.
Method: as §1

Numbering of substitutions follows the chain as printed. Numbers in names are those of the source. Where “and” joins values, the source holds several entries; their conditions need not be identical. Equal values may be shown once. Entries after “also recorded” stand apart in the source; their conditions may differ. Read-outs that look alike come from different tables or passages of the source.

T1 sequence (Q9UGN5 whole entry): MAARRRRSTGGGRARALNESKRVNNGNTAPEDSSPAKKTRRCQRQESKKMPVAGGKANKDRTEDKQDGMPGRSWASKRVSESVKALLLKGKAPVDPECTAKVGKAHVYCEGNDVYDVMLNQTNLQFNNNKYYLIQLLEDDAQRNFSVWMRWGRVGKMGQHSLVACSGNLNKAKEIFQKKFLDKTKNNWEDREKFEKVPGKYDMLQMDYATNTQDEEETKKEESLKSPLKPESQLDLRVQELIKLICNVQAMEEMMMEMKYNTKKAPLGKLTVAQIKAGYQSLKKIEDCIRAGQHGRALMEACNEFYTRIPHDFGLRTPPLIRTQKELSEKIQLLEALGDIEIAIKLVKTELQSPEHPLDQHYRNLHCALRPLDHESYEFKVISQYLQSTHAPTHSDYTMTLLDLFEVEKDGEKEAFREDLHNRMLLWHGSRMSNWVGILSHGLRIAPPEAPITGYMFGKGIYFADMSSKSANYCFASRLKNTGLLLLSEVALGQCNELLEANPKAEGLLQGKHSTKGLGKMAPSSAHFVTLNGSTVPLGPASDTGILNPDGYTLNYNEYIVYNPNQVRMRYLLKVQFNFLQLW
Sequence of PARP1 - Nuc165 / PARP1 - p18mer complex (P09874 whole entry): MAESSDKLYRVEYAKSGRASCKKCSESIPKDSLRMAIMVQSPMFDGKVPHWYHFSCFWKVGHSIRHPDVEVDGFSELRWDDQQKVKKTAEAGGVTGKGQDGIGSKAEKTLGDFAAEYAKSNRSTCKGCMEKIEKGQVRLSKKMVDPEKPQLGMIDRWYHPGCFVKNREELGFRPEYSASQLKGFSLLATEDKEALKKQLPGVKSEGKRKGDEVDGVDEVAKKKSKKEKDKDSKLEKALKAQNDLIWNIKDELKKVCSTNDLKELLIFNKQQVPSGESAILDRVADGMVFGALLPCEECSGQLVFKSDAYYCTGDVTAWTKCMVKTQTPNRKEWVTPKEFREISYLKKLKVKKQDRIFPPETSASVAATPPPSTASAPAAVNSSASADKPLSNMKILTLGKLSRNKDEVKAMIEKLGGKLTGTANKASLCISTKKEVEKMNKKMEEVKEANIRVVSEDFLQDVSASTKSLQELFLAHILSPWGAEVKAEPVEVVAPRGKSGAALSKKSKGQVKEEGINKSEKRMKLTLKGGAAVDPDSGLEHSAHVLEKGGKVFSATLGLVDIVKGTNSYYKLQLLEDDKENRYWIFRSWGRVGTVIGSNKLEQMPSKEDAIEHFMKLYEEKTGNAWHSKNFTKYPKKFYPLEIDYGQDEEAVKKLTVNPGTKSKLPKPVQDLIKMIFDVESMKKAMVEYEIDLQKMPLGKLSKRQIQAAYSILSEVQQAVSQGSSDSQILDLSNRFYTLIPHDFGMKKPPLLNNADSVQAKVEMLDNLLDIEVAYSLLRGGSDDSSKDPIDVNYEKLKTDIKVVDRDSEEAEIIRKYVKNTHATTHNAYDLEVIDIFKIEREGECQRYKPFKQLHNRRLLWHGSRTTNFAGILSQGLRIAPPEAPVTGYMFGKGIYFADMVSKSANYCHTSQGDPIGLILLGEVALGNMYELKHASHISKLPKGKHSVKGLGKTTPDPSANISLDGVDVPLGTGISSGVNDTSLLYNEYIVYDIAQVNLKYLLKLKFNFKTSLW
Sequence of PARP1 - Nuc165 / PARP1 - p18mer complex (Q9NWY4 whole entry partner): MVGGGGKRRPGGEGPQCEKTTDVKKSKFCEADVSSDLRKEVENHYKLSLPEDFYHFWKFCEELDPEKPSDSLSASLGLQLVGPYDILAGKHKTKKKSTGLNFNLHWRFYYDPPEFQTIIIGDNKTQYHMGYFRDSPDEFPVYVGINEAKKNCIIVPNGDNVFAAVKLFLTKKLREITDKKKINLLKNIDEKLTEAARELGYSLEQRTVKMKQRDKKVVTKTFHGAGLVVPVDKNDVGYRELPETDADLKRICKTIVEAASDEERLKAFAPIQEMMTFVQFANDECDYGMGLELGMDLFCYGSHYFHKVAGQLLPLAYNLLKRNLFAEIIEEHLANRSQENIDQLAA
T2 sequence (P09874 whole entry): as the sequence (P09874 whole entry) above

B1: HPF1: Histone PARylation factor, protein that binds PARP1 and PARP2 and provides the catalytic base Glu284 (protein)
chain: LRKEVENHYKLSLPEDFYHFWKFCEELDPEKPSDSLSASLGLQLVGPYDILAGKHKTKKKSTGLNFNLHWRFYYDPPEFQTIIIGDNKTQYHMGYFRDSPDEFPVYVGINEAKKNCIIVPNGDNVFAAVKLFLTKKLREITDKKKINLLKNIDEKLTEAARELGYSLEQRTVKMKQRDKKVVTKTFHGAGLVVPVDKNDVGYRELPETDADLKRICKTIVEAASDEERLKAFAPIQEMMTFVQFANDECDYGMGLELGMDLFCYGSHYFHKVAGQLLPLAYNLLKRNLFAEIIEEHLANRSQENIDQLAA
modifications: Alexa647 C2 maleimide label (extent of labeling typically 50-100%); left off: His tag (inferred from the nickel affinity column), end not stated, state not stated
In the case of B1, the “factor tighter binding to PARP1—Nuc165 than to PARP1—p18mer” value in data set [1] (no olaparib) amounted to 5. Further, the Kd came out at 1200 ± 500 nM in data set [1] (PARP1 – p18mer complex, in the presence of olaparib (1 µM)); 229 ± 55 nM in data set [1] (PARP1—Nuc165 complex, in the presence of olaparib (1 µM)); 790 ± 147 nM in data set [1] (PARP1—Nuc165 complex, no olaparib). Besides, in data set [2] (PARP2 + HPF1, replicate fits of the fluorescence polarization time traces (time in s) of sheet SuppFig4CD), the kobs is 0.09827 and 0.07689 and 0.09446. In addition, the “kobs(+HPF1)” value in data set [2] (PARP2, no PARPi, 2 mM NAD+) turned out to be 0.090 ± 0.011 s⁻¹; in data set [3] (PARP1, no PARPi, 2 mM NAD+), 0.025 ± 0.006 s⁻¹. Besides, the “kobs (individual replicates)” value in data set [3] (PARP1 +HPF1, no PARPi) was 0.019 and 0.025 and 0.031.

B2: F280A mutant of HPF1: F280A mutant of HPF1 (protein)
chain: B1 chain with F244A
With B2, the “binding to PARP1 – Nuc165 complex” value in data set [1] (FRET) is listed as “does not bind; also recorded: failed to bind”.
